Measured values taken from patent US20130071921A1 (Pfizer, published 2013).

T1: Recombinant human Dkk-1 (R&D Systems cat no. 1096-DK/CF), 10xHis tag at the C terminal (human, UniProt O94907 32-266)
T1 construct: the actual N-terminus of the purified protein is marked in bold italic after residue 30, but the mark is an image lost in the text; also called rhuDkk-1; hDkk-1
T1 sequence: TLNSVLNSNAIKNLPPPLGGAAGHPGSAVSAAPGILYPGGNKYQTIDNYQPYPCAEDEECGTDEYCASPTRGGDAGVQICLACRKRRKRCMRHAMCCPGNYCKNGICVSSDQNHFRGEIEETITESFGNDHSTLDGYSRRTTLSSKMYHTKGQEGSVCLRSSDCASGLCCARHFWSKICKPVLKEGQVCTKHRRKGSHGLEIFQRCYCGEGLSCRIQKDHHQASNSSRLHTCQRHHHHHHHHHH


Legend:
[1] = molecular target: T1, Recombinant human Dkk-1 (R&D Systems …); test: SPR screening 37C (BIAcore/ProteOn), Fab lysate over biotinylated human Dkk-1
Protocol: (§1) For screening assays to determine binding and dissociation rates of huMabJC18 variants to human Dkk1, either BIAcore or ProteOn XPR36 (BioRad, Inc.) systems were used. For the BIAcore assay, biotinylated-human Dkk1 was captured on SA (streptavidin) BIAcore chips according to the supplier's instructions. Biotinylated-human Dkk-1 protein was diluted into HBS-EP, and injected over the chip at a concentration of 5 μg/mL. Flow times across the individual chip channels were selected to achieve an antigen density of approximately 500-600 response units (RU). HBS-EP buffer was used as running buffer. Filtered recombinant E.coli cell lysates were injected at high temperature (37° C.) for 1 min at 30 ul/min, allowing a 1-5 min dissociation phase. Surfaces were regenerated with 8 mM NaOH+8% ethanol. A positive control Fab (clone 24) was injected twice at the start of the experiment, and again at the end of the assay to assess reproducibility.
(§2) For the ProteOn assay, biotinylated human Dkk-1 was injected for 1 min at serial fold dilutions empirically determined to yield different levels of immobilization (150-3000 RU) on five channels of a ProteOn NLC Neutravidin sensor chip. The sixth channel was left unmodified to serve as a reference surface. Recombinant Fabs in filtered E. coli lysates were injected at high temperature (37° C.) for 50 sec at 20 μl/min. Running buffer consisted of PBS+1 mg/ml BSA+0.005% Tween-20. The ProteOn is configured such that each injection flows over each of the five Dkk-1 channels as well as the reference channel, and six Fab samples can be injected simultaneously. Fab dissociation from the Dkk-1 surface was monitored for 20 min. The chip surface was regenerated with a 30-sec injection of 8% EtOH, 8 mM NaOH. Clone 24 Fab was used as control. Level of binding during association, and rate of dissociation for each clone was very consistent between different ligand channels.

[2] = molecular target: T1, Recombinant human Dkk-1 (R&D Systems …); test: theoretical: koff / estimated kon 1e6 1/Ms (SPR screening 37C)
Protocol: as §1
as §2, with “channels. […]” for “channels.”

koff [1] [s⁻¹]	Kd [2] [nM]	Binder
0.00442	4.42	L2.1B5 (Fab, V domains shown, tested as Fab (E. coli lysate, screening mode); human kappa CL and IgG2 CH1 not included here) VH: EVQLVESGGGLVQPGGSLRLSCAASGFTFSSYAISWVRQAPGKGLEWVASVSGWGDTYYPDSVKGRFTISRDNAKNSLYLQMNSLRAEDTAVYYCATSLENYAFDYWGQGTTVTVSS VL: EIVLTQSPATLSLSPGERATLSCRASESVDDFGISFMNWYQQKPGQAPRLLIYAASKQGSGIPARFSGSGSGTDFTLTISSLEPEDFAVYYCQQSKEVPPTFGGGTKVEIK
0.0114	11.4	24 (Fab, V domains shown, positive control Fab of the screening assays; human kappa CL and IgG2 CH1 not included here; printed changes identical to L2.1E5; also called clone 24; Clone 24 Fab) VH: EVQLVESGGGLVQPGGSLRLSCAASGFTFSSYAISWVRQAPGKGLEWVASVSGGGRTYYPDSVKGRFTISRDNAKNSLYLQMNSLRAEDTAVYYCATSLENYAFDYWGQGTTVTVSS VL: EIVLTQSPATLSLSPGERATLSCRASESVDDFGISFMNWYQQKPGQAPRLLIYAASKQGSGIPARFSGSGSGTDFTLTISSLEPEDFAVYYCQQSKEVPPTFGGGTKVEIK
0.00914	9.14	24m6 (Fab, V domains shown, tested as Fab (E. coli lysate, screening mode); human kappa CL and IgG2 CH1 not included here) VH: EVQLVESGGGLVQPGGSLRLSCAASGFTFSSYAISWVRQAPGKGLEWVASVSGGGRTYYPDSVKGRFTISRDNAKNSLYLQMNSLRAEDTAVYYCATSLENYAFDYWGQGTTVTVSS VL: EIVLTQSPATLSLSPGERATLSCRASESVDDFGISFMNWYQQKPGQAPRLLIYAGSKQGSGIPARFSGSGSGTDFTLTISSLEPEDFAVYYCQQSKEVPPTFGGGTKVEIK
8.99e-05	0.09	1F10.33L (Fab, V domains shown, human kappa CL and IgG2 CH1 not included here) VH: EVQLVESGGGLVQPGGSLRLSCAASGFTFSSYAISWVRQAPGKGLEWVASVSGGFQTYYPDSVKGRFTISRDNAKNSLYLQMNSLRAEDTAVYYCATSLDNYAFDYWGQGTTVTVSS VL: EIVLTQSPATLSLSPGERATLSCRASESVDDFGISFINWYQQKPGQAPRLLIYAGSKQGSGIPARFSGSGSGTDFTLTISSLEPEDFAVYYCQQLKEVPPTFGGGTKVEIK
0.0118	11.8	24m4 (Fab, V domains shown, tested as Fab (E. coli lysate, screening mode); human kappa CL and IgG2 CH1 not included here) VH: EVQLVESGGGLVQPGGSLRLSCAASGFTFSSYAISWVRQAPGKGLEWVASVSGGGRTYYPDSVKGRFTISRDNAKNSLYLQMNSLRAEDTAVYYCATSLENYAFDYWGQGTTVTVSS VL: EIVLTQSPATLSLSPGERATLSCRASESVDDFGISFLNWYQQKPGQAPRLLIYAASKQGSGIPARFSGSGSGTDFTLTISSLEPEDFAVYYCQQSKEVPPTFGGGTKVEIK
0.000148	0.148	2H10.33L (Fab, V domains shown, tested as Fab (E. coli lysate, screening mode); human kappa CL and IgG2 CH1 not included here) VH: EVQLVESGGGLVQPGGSLRLSCAASGFTFSSYAISWVRQAPGKGLEWVASVSGWFDTYYPDSVKGRFTISRDNAKNSLYLQMNSLRAEDTAVYYCATSLQNYAFDYWGQGTTVTVSS VL: EIVLTQSPATLSLSPGERATLSCRASESVDDFGISFINWYQQKPGQAPRLLIYAGSKQGSGIPARFSGSGSGTDFTLTISSLEPEDFAVYYCQQLKEVPPTFGGGTKVEIK
0.00874	8.74	24m5 (Fab, V domains shown, tested as Fab (E. coli lysate, screening mode); human kappa CL and IgG2 CH1 not included here) VH: EVQLVESGGGLVQPGGSLRLSCAASGFTFSSYAISWVRQAPGKGLEWVASVSGGGRTYYPDSVKGRFTISRDNAKNSLYLQMNSLRAEDTAVYYCATSLENYAFDYWGQGTTVTVSS VL: EIVLTQSPATLSLSPGERATLSCRASESVDDFGISFMNWYQQKPGQAPRLLIYAGTKQGSGIPARFSGSGSGTDFTLTISSLEPEDFAVYYCQQSKEVPPTFGGGTKVEIK
0.000283	0.283	2G9.33L (Fab, V domains shown, tested as Fab (E. coli lysate, screening mode); human kappa CL and IgG2 CH1 not included here) VH: EVQLVESGGGLVQPGGSLRLSCAASGFTFSSYAISWVRQAPGKGLEWVASVSGWGDTYYPDSVKGRFTISRDNAKNSLYLQMNSLRAEDTAVYYCATSLRNYAFDYWGQGTTVTVSS VL: EIVLTQSPATLSLSPGERATLSCRASESVDDFGISFINWYQQKPGQAPRLLIYAGSKQGSGIPARFSGSGSGTDFTLTISSLEPEDFAVYYCQQLKEVPPTFGGGTKVEIK
